Measurements reported in US7053177B1, “Random peptides that bind to gastro-intestinal tract (GIT) transport receptors and related methods” (Cytogen Corporation, priority 1997, dated 2006).
Like-named read-outs stand apart in the source and are kept apart here. Ends that are not written are not given here.

Legend:
[1] = molecular target: T1, hPEPT1 (Homo sapiens, UniProt P46059); assay: Receptor ELISA of phage on recombinant hPEPT1; type: binding; details: Table 4
T1 construct: 391–571; made in house
T1 sequence (P46059 391-571): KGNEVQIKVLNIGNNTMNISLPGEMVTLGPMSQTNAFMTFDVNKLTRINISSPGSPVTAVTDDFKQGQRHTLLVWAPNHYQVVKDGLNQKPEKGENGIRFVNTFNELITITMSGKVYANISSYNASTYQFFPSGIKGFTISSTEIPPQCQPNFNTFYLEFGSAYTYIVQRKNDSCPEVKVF
Experimental: (§1) 96 well plates were coated overnight with GIT receptor, BSA and, optionally, IDE (insulin degrading enzyme, an irrelevant His-fusion protein)or hTF. The plates were blocked for one hour with 0.5% BSA-PBS. After clarification, the amplified phage were diluted 1:100 in 1% BSA plus 0.05% Tween 20 in PBS and added to the plates. Following incubation of the plates on a rotator for 1 to 2 hours, the plates were washed 5 times with 1% BSA plus 0.05% Tween 20 in PBS. […] After the plates were washed 5 times, as described above, TMB substrate was added to the wells. The plates were read at 650 nm absorbance.

[2] = system: rat gastro-intestinal tract (closed loop); assay: Transport of preselected phage libraries in rat closed loop, detected by oligonucleotide hybridization/autoradiography; details: hPEPT1 pool; in words
Experimental: Four preselected phage libraries, GI-D2H, GI-hSI, GI-HPT1 and GI-hPEPT1, were constructed by pooling phage previously selected by screening random phage display libraries D38 and DC43 using the HPT1, HPEPT1, D2H and hSI receptor or binding sites located in the GIT.
In particular, phages selected in vitro to each receptor or binding site located in the GIT were amplified in E. coli, PEG-precipitated, resuspended in TBS and the titer of each phage sample was determined by plaquing in E. coli as described above. […] Using the in situ loop model described above, 0.5 ml of preselected phage library solution was injected into the tied-off portion of the duodenum/jejunum. Blood was collected into heparinized tubes from the portal vein at 0, 15, 30, 45 and 60 minutes. A blood sample was taken from the systemic circulation at the end of the experiment. Similarly, the portion of the duodenum/jejunum used for phage injection was taken at the end of the experiment.
Thirty microliters of the collected portal blood (neat and 10^−2, 10^−1, 10^−6 dilutions) was added to 30 μl E. coli K91Kan cells (overnight culture) and incubated at 37° C. for 10 min. Subsequently, 3 ml of top agarose was added and the samples were plated for plaques. One hundred microliters of the collected portal blood was added to 100 μl of E. coli K91Kan. Five milliliters of LB medium was then added and the samples were incubated at 37° C. overnight in a rotating microbial incubator. The E. coli was removed by centrifugation and the amplified phage supernatant samples were either titered directly or were PEG-precipitated, resuspended in TBS and titered. Following titration of the amplified phage, samples containing phage from each set of animals were combined, adjusting the titer of each sample to the same titer, and were plated for plaques on LB agar lates (22 cm^2 square plates). Either 12,000 or 24,000 phage were lated for plaques.
Thirty microliters of the collected systemic blood (neat and 10^−2, 10^−1, 10^−6 dilutions) was added to E. coli K91Kan cells, incubated at 37° C. for 10 min. Three ml of top agarose was then added and the samples were plated for plaques. One hundred microliters of the collected systemic blood was added to 100 μl of E. coli K91Kan, incubated at 37° C. for 10 min. Five milliliters of LB medium was then added and the samples were incubated at 37° C. overnight in a rotating microbial incubator. The E. coli was removed by centrifugation and the amplified phage supernatant samples were either titered directly or were PEG-precipitated, resuspended in TBS and titered. Following titration of the amplified phage, samples containing phage from each set of animals were combined, adjusting the titer of each sample to the same titer, and were plated for plaques on LB agar plates (22 cm^2 square plates). Either 12,000 or 24,000 phage were plated for plaques.
The intestinal tissue portion used in each closed loop was excised. […] Alternatively, the tissue (in PBS supplemented with protease inhibitors) was homogenized in an Ultra Thorex homogenizer, washed 3 times in PBS containing protease inhibitors and resuspended in PBS containing protease inhibitors (Int-G samples). In each case, serial dilutions (neat and 10^−2, 10^−4, 10^−6 dilutions) of the tissue homogenate was titered in E. coli.
The phage amplified from the portal blood, systemic blood and intestinal tissue was plated for plaques. […] The filters were air-dried, and the DNA was cross-linked to the filter (UV crosslinking: 2 min, high setting). The filters were incubated in pre-hybridization buffer (6×SSC, 5× Denhardt's solution, 0.1% SDS, […] yeast tRNA) at 40° C.–45° C. for at least 60 min.
Synthetic oligonucleotides, (22-mers), complimentary to regions coding for the receptor or binding sites used to create the preselected phage library, were synthesized (see Table 14 below).

[3] = molecular target: BSA (Bos taurus, UniProt P02769); assay: Receptor ELISA of phage on BSA (background control protein); type: binding; details: Table 4; phage panned on hPEPT1
Sequence of BSA (P02769 25-607): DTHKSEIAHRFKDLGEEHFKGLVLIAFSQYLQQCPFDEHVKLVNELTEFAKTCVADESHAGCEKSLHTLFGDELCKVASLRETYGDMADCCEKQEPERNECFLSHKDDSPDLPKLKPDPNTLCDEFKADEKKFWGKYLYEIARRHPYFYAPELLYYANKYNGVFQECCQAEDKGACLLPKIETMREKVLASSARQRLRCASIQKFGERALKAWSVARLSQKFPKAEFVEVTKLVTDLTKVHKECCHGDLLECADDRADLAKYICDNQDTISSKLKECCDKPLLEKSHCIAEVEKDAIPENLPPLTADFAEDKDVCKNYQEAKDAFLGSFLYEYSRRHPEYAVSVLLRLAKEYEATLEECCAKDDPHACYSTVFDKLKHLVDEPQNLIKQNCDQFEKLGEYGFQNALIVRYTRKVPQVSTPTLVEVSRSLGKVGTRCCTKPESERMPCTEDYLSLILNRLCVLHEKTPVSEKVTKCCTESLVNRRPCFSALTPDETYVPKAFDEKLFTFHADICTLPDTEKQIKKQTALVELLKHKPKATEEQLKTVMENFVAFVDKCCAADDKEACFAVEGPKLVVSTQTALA
Experimental: 96 well plates were coated overnight with GIT receptor, BSA and, optionally, IDE (insulin degrading enzyme, an irrelevant His-fusion protein)or hTF. The plates were blocked for one hour with 0.5% BSA-PBS. After clarification, the amplified phage were diluted 1:100 in 1% BSA plus 0.05% Tween 20 in PBS and added to the plates. Following incubation of the plates on a rotator for 1 to 2 hours, the plates were washed 5 times with 1% BSA plus 0.05% Tween 20 in PBS. Dilute anti-M13-HRP conjugate (anti-M13 antibody linked to horse radish peroxidase (HRP)) was added to all the wells and the plate was incubated for one hour on a rotator. After the plates were washed 5 times, as described above, TMB substrate was added to the wells. The plates were read at 650 nm absorbance.

[4] = molecular target: bovine serum albumin (bovine) (UniProt P02769); assay: phage ELISA on coated BSA
Sequence of bovine serum albumin (bovine) (P02769 25-607 limits assumed): as the sequence (P02769 25-607) above

[5] = molecular target: T2, recombinant HPT1 receptor domain (human intestinal peptide-associated transporter HPT1, amino acid residues … (human, UniProt Q12864 29-273)); assay: phage ELISA, OD on HPT1 over OD on BSA
T2 construct: purified under denaturing conditions; coated on plates
T2 sequence: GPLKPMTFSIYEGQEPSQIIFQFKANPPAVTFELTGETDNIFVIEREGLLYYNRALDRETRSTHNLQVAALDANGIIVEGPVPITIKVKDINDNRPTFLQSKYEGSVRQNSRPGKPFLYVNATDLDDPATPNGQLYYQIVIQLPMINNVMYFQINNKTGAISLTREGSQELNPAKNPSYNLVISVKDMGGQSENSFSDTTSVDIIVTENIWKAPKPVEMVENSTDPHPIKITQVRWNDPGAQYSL
Experimental: as §1, with “6.6. Receptor ELISA Procedure 96” for “96”

[6] = molecular target: T3, recombinant hSI receptor domain (human sucrase-isomaltase complex, amino acid residues 272-667), His-tag … (human, UniProt P14410 272-667); assay: phage ELISA, OD on hSI over OD on BSA
T3 construct: purified under denaturing conditions on Ni-NTA agarose; coated on plates; also called hS1
T3 sequence (P14410 272-667 limits assumed, form in doubt, one chain of several): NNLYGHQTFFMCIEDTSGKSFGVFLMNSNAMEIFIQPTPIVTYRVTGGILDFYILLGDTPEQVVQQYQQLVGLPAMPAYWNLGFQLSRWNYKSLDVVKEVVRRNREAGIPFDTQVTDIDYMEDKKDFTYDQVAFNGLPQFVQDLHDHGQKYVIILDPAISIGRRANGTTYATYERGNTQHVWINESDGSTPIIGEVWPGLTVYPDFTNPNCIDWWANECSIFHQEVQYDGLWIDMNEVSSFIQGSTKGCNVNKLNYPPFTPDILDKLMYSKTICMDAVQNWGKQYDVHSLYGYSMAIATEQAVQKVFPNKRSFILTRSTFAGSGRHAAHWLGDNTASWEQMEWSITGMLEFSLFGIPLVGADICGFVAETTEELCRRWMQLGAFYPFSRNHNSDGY
Experimental: as §1, with “6.6. Receptor ELISA Procedure 96” for “96”

[7] = molecular target: T3, recombinant hSI receptor domain (human …); assay: phage ELISA on coated hSI
Experimental: as §1, with “6.6. Receptor ELISA Procedure 96” for “96”

[8] = molecular target: T4, recombinant HPT1 receptor domain (human intestinal peptide-associated transporter HPT1, amino acid residues 29-273), His-tag fusion protein (human) (UniProt Q12864); assay: phage ELISA, OD on HPT1 over OD on BSA
T4 sequence: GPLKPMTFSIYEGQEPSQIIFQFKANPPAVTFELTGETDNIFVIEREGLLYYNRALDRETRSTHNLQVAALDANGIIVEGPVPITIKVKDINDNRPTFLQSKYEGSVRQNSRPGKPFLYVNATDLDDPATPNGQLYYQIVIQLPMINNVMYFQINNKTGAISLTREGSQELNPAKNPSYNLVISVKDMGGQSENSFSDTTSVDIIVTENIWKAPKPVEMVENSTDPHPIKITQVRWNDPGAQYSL

[9] = molecular target: T4, recombinant HPT1 receptor domain (human intestinal peptide-associated transporter HPT1, amino acid residues 29-273), His-tag fusion protein (human); assay: phage ELISA on coated HPT1
[10] = molecular target: T5, recombinant D2H receptor domain (human D2H transporter, amino acid residues 387-685), His-tag fusion protein (human, UniProt Q07837 387-685); assay: phage ELISA, OD on D2H over OD on BSA
T5 construct: purified under denaturing conditions; coated on plates
T5 sequence: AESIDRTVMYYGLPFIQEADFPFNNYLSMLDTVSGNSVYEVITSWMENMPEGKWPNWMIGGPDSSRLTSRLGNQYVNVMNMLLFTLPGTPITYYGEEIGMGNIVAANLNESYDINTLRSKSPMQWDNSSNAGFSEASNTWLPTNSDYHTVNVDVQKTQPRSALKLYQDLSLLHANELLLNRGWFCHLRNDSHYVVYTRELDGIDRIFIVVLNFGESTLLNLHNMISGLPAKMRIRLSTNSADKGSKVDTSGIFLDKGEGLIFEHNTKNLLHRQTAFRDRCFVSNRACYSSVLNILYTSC
Experimental: as §1, with “6.6. Receptor ELISA Procedure 96” for “96”
Binding to fixed Caco-2 cells, D2H and BSA was examined.

[11] = molecular target: T6, recombinant D2H receptor domain (human D2H transporter, amino acid residues 387-685), His-tag fusion protein (human), Q07837; assay: phage ELISA, OD on D2H over OD on BSA
T6 chain: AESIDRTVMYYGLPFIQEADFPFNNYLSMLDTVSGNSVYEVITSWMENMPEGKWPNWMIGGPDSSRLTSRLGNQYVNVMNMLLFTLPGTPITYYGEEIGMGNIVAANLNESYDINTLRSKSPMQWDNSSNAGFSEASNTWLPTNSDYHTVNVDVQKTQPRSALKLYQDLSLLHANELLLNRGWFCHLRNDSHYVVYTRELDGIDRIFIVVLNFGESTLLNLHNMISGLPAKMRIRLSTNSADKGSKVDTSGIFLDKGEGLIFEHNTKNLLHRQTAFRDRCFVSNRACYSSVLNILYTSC

[12] = molecular target: T6, recombinant D2H receptor domain (human …); assay: phage ELISA on coated D2H
[13] = molecular target: bovine serum albumin (bovine) (UniProt P02769); assay: phage ELISA on coated BSA; remark: listed apart in the source

Which hPEPT1 ([1]; phage panned on hPEPT1) does the source give for “RGSTGTAGGERSGVLNLHTRDNASGSGFKPWYPSNRGHK (not fully specified) [Peptide 5PAX5]” here?
Its hPEPT1 is 0.15 OD.

And the PEPT1/BSA ([1]; ratio of hPEPT1 to BSA binding)?
Its PEPT1/BSA is 4.

What about the “Binding to / presence in the intestine samples” value [2] of the same molecule?
Its value is “not found”.

And the “Presence in the portal circulation” value [2]?
Its value is “not found”.

What about the “Presence in the systemic circulation” value [2] of the same molecule?
The value was “found in the systemic circulation”.

And the BSA [3]?
Its BSA is 0.036 OD.

B1: phage HCA3 (peptide)
peptide: RHISEYSFANSHLMGGESKRKGCGINGSFSPTCPRSPTPAFRRT
modifications: cysteine pairing not given here; also: displayed as N-terminal pIII fusion on M13 phage
notes: M13 phage displaying this insert as N-terminal pIII fusion; whole phage in the ELISA; not shown: M13 pIII display protein and the vector-encoded flanking residues
How did the OD [4] turn out when B1 was run?
Its OD is 0.038 OD 650 nm.

And the HPT1/BSA [5]?
The HPT1/BSA was 1 ratio.

B2: phage S21 (peptide)
peptide: SPRSFWPVVSRHESFGISNYLGCGYRTCISGTMTKSSPIYPRHS
notes: M13 phage displaying this insert as N-terminal pIII fusion; whole phage in the ELISA
Which OD [4] does the source give for B2 here?
The OD was 0.092 OD 650 nm.

What about the hSI/BSA [6] of the same molecule?
Its hSI/BSA is 9 ratio.

What about the OD [7] of the same molecule?
Its OD is 0.845 OD 650 nm.

B3: phage HAX40 (peptide)
peptide: REFAERRLWGCDDLSWRLDAEGCGPTPSNRAVKHRKPRPRSPAL
modifications: cysteine pairing not given here; also: displayed as N-terminal pIII fusion on M13 phage
notes: M13 phage displaying this insert as N-terminal pIII fusion; whole phage in the ELISA; also called H44; not shown: M13 pIII display protein and the vector-encoded flanking residues
What does the source list for B3?
OD [4]: 0.065 OD 650 nm; HPT/BSA [5]: 15 ratio

What does the source list for SREEANWDGYKREMSHRSRFWDATHLSRPRRPANSGDPN (peptide, not shown: large carriers, also: displayed as N-terminal pIII fusion on M13 phage) [phage HAX9]?
OD [4]: 0.075 OD 650 nm; HPT/BSA [8]: 5; OD [9]: 0.382 OD 650 nm

B4: phage DCX36 (peptide)
peptide: SWSSWNWSSKTTRLGDRATREGCGPSQSDGCPYNGRLTTVKPRT
notes: as for B2
Which D2H/BSA [10] does the source give for B4 here?
Its D2H/BSA is 5 ratio.

B5: phage HAX42 (peptide, not shown: large carriers)
peptide: SDHALGTNLRSDNAKEPGDYNCCGNGNSTGRKVFNRRRPSAIPT
modifications: cysteine pairing not given here; also: displayed as N-terminal pIII fusion on M13 phage
B5 was tested. Which OD [4] did it give?
The OD was 0.071 OD 650 nm.

What about the HPT/BSA [8] of the same molecule?
The HPT/BSA was 5.

What about the OD [9] of the same molecule?
Its OD is 0.32 OD 650 nm.

SGSLNAWQPRSWVGGAFRSHANNNLNPKPTMVTRHPT (modifications not checked) [phage DCX39] was tested. Which D2H/BSA [11] did it give?
Its D2H/BSA is 5.

And the OD [12]?
The OD was 0.299 OD 650 nm.

What about the OD [13] of the same molecule?
The OD was 0.066 OD 650 nm.
